# ± gives the uncertainty stated by the source.
# Experiment: self-splicing fitness, log relative to wild type (ln ratio); higher = more splicing; Tetrahymena group I intron in knt gene, E. coli kanamycin selection, DiMSum; sequences stand for … in CUCUCU…GGAGGGAAAAGUUAUCAGGCAUGCACCUGGUAGCUAGUCUUUAAACCAAUAGAUUGCAUCGGUUUAAAAGGCAAGACCGUCAAAUUGCGGGAAAGGGGUCAACAGCCGUUCAGUACCAAGUCUCAGGGGAAACUUUGAGAUGGCCUUGCAAAGGGUAUGGUAAUAAGCUGACGGACAUGGUCCUAACCACGCAGCCAAGUCCUAAGUCAACAGAUCUUCUGUUGAUAUGGAUGCAGUUCACAGACUAAAUGUCGGUCGGGGAAGAUGUAUUCUUCUCAUAAGAUAUAGUCGGACCUCUCCUUAAUGGGAGCUAGCGGAUGAAGUGAUGCAACACUGGAGCCGCUGGGAACUAAUUUGUAUGCGAAAGUAUAUUGAUUAGUUUUGGAGUACUCGUGGUCG
# In short: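 Pooled colonies went to amplicon sequencing on an Illumina HiSeq 2500 after six replicate transformations. The plates were LB agar with 100 μg/mL carbenicillin, 50 μM IPTG and 0.2% rhamnose, with or without 25 μg/mL kanamycin, incubated overnight at 37°C or 30°C. The E. coli BL21(DE3) library had all eight P1ex-region intron nucleotides randomised, the intron placed in the knt kanamycin-resistance gene on pET-22b(+). DiMSum fitness is the error-weighted combination of replicate fold changes, kanamycin against none, normalised to wild type.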
Sequence,self-splicing fitness (ln) (30 °C),self-splicing fitness (ln) (37 °C)
CCAGAGCAAUAUUACGACGG,-2.88 ± 0.18,-2.02 ± 0.28
UGCUAGCAAUAUUACGUCCU,-1.19 ± 0.12,-0.143 ± 0.14
CAAAAGCAAUAUUACGUGAA,-2.73 ± 0.085,-1.63 ± 0.099
ACGGAGCAAUAUUACGUCUC,-4.93 ± 0.32,-1.94 ± 0.15
GCAUAGCAAUAUUACGUGUU,-3.84 ± 0.14,-2.36 ± 0.088
UCAAAGCAAUAUUACGCUAU,-3.44 ± 0.22,-1.41 ± 0.18
ACUUAGCAAUAUUACGCGUC,-3.62 ± 0.25,-1.83 ± 0.26
GUCGAGCAAUAUUACGGCGU,-0.43 ± 0.19,-0.689 ± 0.14
AGCUAGCAAUAUUACGUAAU,-3.29 ± 0.16,-0.924 ± 0.11
UGCCAGCAAUAUUACGGUAA,-1.15 ± 0.055,-0.9 ± 0.059
CUAGAGCAAUAUUACGCCCG,-0.259 ± 0.2,0.187 ± 0.18
ACCCAGCAAUAUUACGUCCA,-1.27 ± 0.12,-0.696 ± 0.16
UUGGAGCAAUAUUACGUGGA,-2.9 ± 0.33,-2.24 ± 0.25
CAUUAGCAAUAUUACGUCAA,-2.38 ± 0.23,-2.96 ± 0.4
AGAUAGCAAUAUUACGACGU,0.446 ± 0.097,0.203 ± 0.098
UGCAAGCAAUAUUACGUGCU,-2.02 ± 0.1,-0.559 ± 0.094
AGUUAGCAAUAUUACGGAUG,-0.996 ± 0.11,-0.801 ± 0.15
GCCAAGCAAUAUUACGGGGA,-0.604 ± 0.065,0.0408 ± 0.085
AGGCAGCAAUAUUACGGCUG,-2.3 ± 0.35,
UUUGAGCAAUAUUACGGAUU,-3.69 ± 0.25,-2.31 ± 0.2
AGGGAGCAAUAUUACGGGAG,-3.56 ± 0.2,-2.13 ± 0.23

Sequence,self-splicing fitness (ln) (30 °C),self-splicing fitness (ln) (37 °C)
GAGGAGCAAUAUUACGUUUA,-1.89 ± 0.26,-1.84 ± 0.32
GUCUAGCAAUAUUACGGCUG,-2.04 ± 0.18,-1.91 ± 0.21
ACGCAGCAAUAUUACGGCCC,-0.00164 ± 0.16,0.0347 ± 0.18
ACGGAGCAAUAUUACGAGUG,,-2.8 ± 0.38
AAUCAGCAAUAUUACGGUAG,-1.83 ± 0.092,-0.774 ± 0.097
AUCAAGCAAUAUUACGAACG,-1.61 ± 0.13,-0.462 ± 0.13
AACAAGCAAUAUUACGAUUU,0.129 ± 0.056,0.672 ± 0.077
CCGUAGCAAUAUUACGAUCA,-2.86 ± 0.32,-2.34 ± 0.35
AUUGAGCAAUAUUACGGACU,-2.64 ± 0.21,-0.639 ± 0.14
AGUAAGCAAUAUUACGUUGG,-3.59 ± 0.48,-2.64 ± 0.36
GACCAGCAAUAUUACGAGUU,-3.35 ± 0.1,-1.5 ± 0.096
GCAUAGCAAUAUUACGUGGU,-3.13 ± 0.14,-2.8 ± 0.15
CGGUAGCAAUAUUACGUACG,-1.3 ± 0.12,-0.879 ± 0.16
UAAAAGCAAUAUUACGUUUU,-3.26 ± 0.13,-2.82 ± 0.16
CGCCAGCAAUAUUACGCUCC,-0.395 ± 0.13,-1.36 ± 0.2
GCCCAGCAAUAUUACGGCUU,-1.29 ± 0.071,-0.757 ± 0.093
GUGUAGCAAUAUUACGGAGA,,-2.36 ± 0.45
UUCCAGCAAUAUUACGCGGU,-3.42 ± 0.18,-2.54 ± 0.2
GGAAAGCAAUAUUACGAACA,-1.34 ± 0.15,-0.362 ± 0.15
GAGUAGCAAUAUUACGCGUC,-1.36 ± 0.21,-1.26 ± 0.22
GAGUAGCAAUAUUACGUACA,-0.962 ± 0.2,-0.303 ± 0.18

Sequence,self-splicing fitness (ln) (30 °C),self-splicing fitness (ln) (37 °C)
UAAAAGCAAUAUUACGCUAC,-3.07 ± 0.24,
GCAUAGCAAUAUUACGUCUG,-1.87 ± 0.068,-0.701 ± 0.072
GGAGAGCAAUAUUACGCAUG,,-0.0425 ± 0.28
UCUUAGCAAUAUUACGCGAA,,-1.19 ± 0.3
UAUGAGCAAUAUUACGGUGU,-3.54 ± 0.23,-2.63 ± 0.2
AGGGAGCAAUAUUACGGCGA,-3.35 ± 0.4,-2.62 ± 0.44
CAGAAGCAAUAUUACGGAAG,-1.65 ± 0.077,-1.35 ± 0.095
UCCAAGCAAUAUUACGGAGA,-0.684 ± 0.087,-0.415 ± 0.092
UUUGAGCAAUAUUACGACAG,-2.8 ± 0.15,-1.81 ± 0.18
GUUCAGCAAUAUUACGCAUC,-0.592 ± 0.12,-0.361 ± 0.14
CAGGAGCAAUAUUACGUACC,-2.36 ± 0.45,
CAUAAGCAAUAUUACGUUAC,-3.85 ± 0.24,-2.15 ± 0.24
GUCAAGCAAUAUUACGGUAC,-3.07 ± 0.15,-0.924 ± 0.11
AACAAGCAAUAUUACGAAUC,-3.22 ± 0.17,-2.24 ± 0.13
GCCGAGCAAUAUUACGUAUG,-3.36 ± 0.25,-3.11 ± 0.38
CUGAAGCAAUAUUACGGCCC,-1.58 ± 0.48,
UCCGAGCAAUAUUACGUCUC,-2.26 ± 0.21,-2.99 ± 0.43
CACAAGCAAUAUUACGAAGU,-3.68 ± 0.16,-1.43 ± 0.12
ACUGAGCAAUAUUACGGAAC,,-1.92 ± 0.29
GUGAAGCAAUAUUACGUUUU,-4.1 ± 0.14,-3.88 ± 0.22
GCCAAGCAAUAUUACGAUAA,-3.09 ± 0.17,-1.6 ± 0.2
